From paper PMC3234860 (The Journal of Biological Chemistry, 2011)

Legend:
native MS = molecular target: the molecule itself; assay: native MS
Sfr1 = molecular target: T1, Sfr1 (S. pombe, UniProt Q9USV1 1-299); assay: AUC
T1 sequence: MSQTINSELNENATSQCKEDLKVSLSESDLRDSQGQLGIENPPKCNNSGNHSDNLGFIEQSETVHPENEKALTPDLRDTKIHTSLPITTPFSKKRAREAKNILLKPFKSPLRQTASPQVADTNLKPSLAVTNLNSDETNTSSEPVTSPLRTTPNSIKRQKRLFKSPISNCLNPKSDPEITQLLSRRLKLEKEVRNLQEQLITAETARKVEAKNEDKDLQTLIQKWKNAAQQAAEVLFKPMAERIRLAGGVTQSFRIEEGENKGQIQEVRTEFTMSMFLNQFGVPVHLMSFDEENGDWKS

stoichiometry N (Sfr1): 1 Swi5:Sfr1
B1: Swi5 (natural protein)
chain: MEKSQLESRVHLLEQQKEQLESSLQDALAKLKNRDAKQTVQKHIDLLHTYNEIRDIALGMIGKVAEHEKCTSVELFDRFGVNGSE
stoichiometry N (native MS): 2
